Test results: article PMC11900802

What was measured:
[1] = immunofluorescence, nuclear FOXD1; conditions: glycan lost
Western blot of FOXD1 = conditions: glycan lost; control: vector control

B1: FOXD1: tunicamycin (protein)
parent chain: MTLSTEMSDASGLAEETDIDVVGEGEDEEDEEEEDDDEGGGGGPRLAVPAQRRRRRRSYAGEDELEDLEEEEDDDDILLAPPAGGSPAPPGPAPAAGAGAGGGGGGGGAGGGGSAGSGAKNPLVKPPYSYIALITMAILQSPKKRLTLSEICEFISGRFPYYREKFPAWQNSIRHNLSLNDCFVKIPREPGNPGKGNYWTLDPESADMFDNGSFLRRRKRFKRQPLLPPNAAAAESLLLRGAGAAGGAGDPAAAAALFPPAPPPPPHAYGYGPYGCGYGLQLPPYAPPSALFAAAAAAAAAAAFHPHSPPPPPPPHGAAAELARTAFGYRPHPLGAALPGPLPASAAKAGGPGASALARSPFSIESIIGGSLGPAAAAAAAAQAAAAAQASPSPSPVAAPPAPGSSGGGCAAQAAVGPAAALTRSLVAAAAAAASSVSSSAALGTLHQGTALSSVENFTARISNC
In the case of B1, the localisation_or_trafficking ([1]; control: untreated) is reported as “decreases”.

B2: FOXD1: GEM+TM (protein)
parent chain: MTLSTEMSDASGLAEETDIDVVGEGEDEEDEEEEDDDEGGGGGPRLAVPAQRRRRRRSYAGEDELEDLEEEEDDDDILLAPPAGGSPAPPGPAPAAGAGAGGGGGGGGAGGGGSAGSGAKNPLVKPPYSYIALITMAILQSPKKRLTLSEICEFISGRFPYYREKFPAWQNSIRHNLSLNDCFVKIPREPGNPGKGNYWTLDPESADMFDNGSFLRRRKRFKRQPLLPPNAAAAESLLLRGAGAAGGAGDPAAAAALFPPAPPPPPHAYGYGPYGCGYGLQLPPYAPPSALFAAAAAAAAAAAFHPHSPPPPPPPHGAAAELARTAFGYRPHPLGAALPGPLPASAAKAGGPGASALARSPFSIESIIGGSLGPAAAAAAAAQAAAAAQASPSPSPVAAPPAPGSSGGGCAAQAAVGPAAALTRSLVAAAAAAASSVSSSAALGTLHQGTALSSVENFTARISNC
For B2, the localisation_or_trafficking ([1]; control: GEM alone) was “decreases”.

B3: FOXD1: ALG3 knockdown (protein)
parent chain: MTLSTEMSDASGLAEETDIDVVGEGEDEEDEEEEDDDEGGGGGPRLAVPAQRRRRRRSYAGEDELEDLEEEEDDDDILLAPPAGGSPAPPGPAPAAGAGAGGGGGGGGAGGGGSAGSGAKNPLVKPPYSYIALITMAILQSPKKRLTLSEICEFISGRFPYYREKFPAWQNSIRHNLSLNDCFVKIPREPGNPGKGNYWTLDPESADMFDNGSFLRRRKRFKRQPLLPPNAAAAESLLLRGAGAAGGAGDPAAAAALFPPAPPPPPHAYGYGPYGCGYGLQLPPYAPPSALFAAAAAAAAAAAFHPHSPPPPPPPHGAAAELARTAFGYRPHPLGAALPGPLPASAAKAGGPGASALARSPFSIESIIGGSLGPAAAAAAAAQAAAAAQASPSPSPVAAPPAPGSSGGGCAAQAAVGPAAALTRSLVAAAAAAASSVSSSAALGTLHQGTALSSVENFTARISNC
In the case of B3, the expression_or_secretion (Western blot of FOXD1) is reported as “decreases” and the localisation_or_trafficking ([1]; control: vector control) is reported as “decreases”.
